Measurements as given in patent publication US20250382355A1 (Merck Sharp & Dohme, published 2025).

B1: 5A6 VHH-Fc (Fc fusion)
chain: QVQLVESGGGLAQAGGSLRLSCATSGLTFSMSAMGWFRQAPGNEREFVGVINWNGGSSRYADSVRGRFTISRDNAKNTVYLQMNSLKPEDTGVYYCAADALNIGTGEVNPRLYDYWGQGTQVMVSS
B2: 15H7 VHH-Fc (Fc fusion)
chain: QVQLVESGGRLVQAGGSLRLSCAAPGRTFRNLTLGWFRQAPGKEREFVASTSWPDDEMTYYTDSVKGRFTISRDNAKNTVYLQMNSLKPEDTAVYYCAAASWSGRSTLSYDYDYWGQGTQVTVST
B3: 11F8 VHH-Fc (Fc fusion)
chain: QVQLVESGGGLVQAGGSLRLSCAASGRTVGYYAVGWFRQAPGKERDFVAAISWSGRNTNYADSVTGRFTIFRDNAKNTVDLQMNSLKPEDTAVYYCAADYWNYGSGSEVPNNYDTWGQGTQVTVSS
B4: 9B2 VHH-Fc (Fc fusion)
chain: QVQLVESGGGLVQPGGSLRLSCAASGFTLDNYAIGWFRQAPGKEREGVSCISSSDGDTQYADSVKGRFTISRDNAKNTVYLQMNSLKPEDTAVYYCAVEKVYARSWFFHLCSELDFGSWGQGTQVTVSS
B5: 1A11 VHH-Fc (Fc fusion)
chain: QVQLVESGGGLVQAGGSLRLSCEVSGSIYSINSMGWYRQAPGKQRELVAGIVSDGRINYADSVKGRFTISRAKNTVYLQMNSLKPEDTAVYYCAADRAFVYAGDYDYLGQGTQVTVSS
B6: 8E9 VHH-Fc (Fc fusion)
chain: QVQLVESGGGLVEAGGSLRLSCVASGSSSSINAMGWYRQAPGKQRELVASISHDGETKYANSVKGRFTISRGNAKNTIYLQMNSLKPEDTAVYYCVGDVAWVVVAGEYDYWGQGTQVTVSS
B7: 5D7 VHH-Fc (Fc fusion)
chain: QVQLVESGGGLVQAGGSLRLSCAASGRTGSRYIMGWFRQAPGKEREFVAAINWRGDSTYYADSVKGRFTIARDNAKNTAYLQMNSLKPEDTAVYYCVADRGESYYYTRSTEYTYWGQGTQVTVSS
B8: 13C8 VHH-Fc (Fc fusion)
chain: QVQLVESGGGLVQAGGSLRLSCAASGRTVNKYMTGWFRQTPGKEREFVASIDWSSTTTHYANSVKGRFTISRDKVKNTVYLQMNGLKPEDTAVYYCAAHQDSSYGYTILPIDYDSWGQGTQVTVSS
B9: 7A9 VHH-Fc (Fc fusion)
chain: QVQLVESGGGLVQAGGSLRLSCSASGGTASRSAMGWFRQAPGKEREFVAGISRRNSGSTYVADSYEDSVKGRFTISRDNAKNTIYLQMNSLKPEDTAVYYCAAEPTLGWYVPRRSVEYEYWGQGTQVTVSS
B10: 15H1 VHH-Fc (Fc fusion)
chain: QVQLVESGGGLAQAGGSLRLSCASSGLIFSGSAMGWFRQAPGKEREFVGVISWNGRTTYADSVKGRFTISRDDAVNMVWLQMNNLKPEDTAVYYCAADHLNYGSGDVNPRTYDYWGQGTQVTVSS
B11: 10B8 VHH-Fc (Fc fusion)
chain: QVQLVESGGGLVQPGGSLRLSCAASGITLDYYAIAWFRQAPGKEREGVSCFCSSDGDIRYADSVKGRFTISRDNAKNTVYLQMNSLKPEDTAVYYCATERVYSSTWFFHRYSELDFGSWGRGTQVTVSS
B12: 19E10 VHH-Fc (Fc fusion)
chain: QVQLVESGGGLVQPGGSLRLSCVASGSTISINSMGWYRQAPGKAREMVATITNDGPIKYADPVKGRFTISRDNPKNTVYLQMNSLKPEDTAVYYCVADRAYWLAGEWEYWGQGTQVTVSS
B13: 5G11 VHH-Fc (Fc fusion)
chain: QVQLVESGGGLVQAGGSLRLSCAASGRTFSIYAVGWFRQAPGKERDFVAGITWSGGTTYYSDSVKGRFTISRDNAKNTVYLQMNNLKPEDTAIYYCAVDTYSMTLSARSYDYWGQGTQVTVSS

molecular target: SARS-CoV prefusion-stabilized spike protein (SARS-CoV-PreS) (SARS-CoV, UniProt P59594 14-1190); assay: ELISA

Binder	EC50
B1	90 pM
B2	80 pM
B3	180 pM
B4	120 pM
B5	50 pM
B6	80 pM
B7	40 pM
B8	100 pM
B9	60 pM
B10	60 pM
B11	130 pM
B12	30 pM
B13	180 pM
